Tests used:
[1] = test system: subjects with previously treated locally advanced or metastatic urothelial cancer; assay: EV-301: duration of response (DOR) per RECIST V1.1; type: in vivo, human
Description: Duration of Response (DOR) is defined as the time from the date of the first response CR/PR per RECIST V1.1 (whichever is first recorded) that is subsequently confirmed as assessed by investigator to the date of radiological progression or date of death for subjects who achieved CR or PR. If a subject has not progressed or died, the subject was censored at the date of last radiological assessment or at the date of first CR/PR if no other post-baseline radiological assessment is available after the first CR/PR. The median DOR was estimated using the Kaplan-Meier method and is reported along with the corresponding 95% confidence interval by treatment arm.

[2] = Phase 1 study of EV: pharmacokinetics; type: in vivo, human
Description: Based on pharmacokinetic data from the phase 1 study, the half-life of EV is ˜1-2 days. […] Minimal (<50%) intra-cycle accumulation of MMAE was observed. It is anticipated that the dosing schedule in the study will maintain ADC exposures over each 28-day cycle, contributing to a favorable balance of activity and safety, as observed in the phase 1 trial.

191P4D12 = biological target: T1, 191P4D12 (Homo sapiens, UniProt Q96NY8)
T1 sequence (Q96NY8 32-510): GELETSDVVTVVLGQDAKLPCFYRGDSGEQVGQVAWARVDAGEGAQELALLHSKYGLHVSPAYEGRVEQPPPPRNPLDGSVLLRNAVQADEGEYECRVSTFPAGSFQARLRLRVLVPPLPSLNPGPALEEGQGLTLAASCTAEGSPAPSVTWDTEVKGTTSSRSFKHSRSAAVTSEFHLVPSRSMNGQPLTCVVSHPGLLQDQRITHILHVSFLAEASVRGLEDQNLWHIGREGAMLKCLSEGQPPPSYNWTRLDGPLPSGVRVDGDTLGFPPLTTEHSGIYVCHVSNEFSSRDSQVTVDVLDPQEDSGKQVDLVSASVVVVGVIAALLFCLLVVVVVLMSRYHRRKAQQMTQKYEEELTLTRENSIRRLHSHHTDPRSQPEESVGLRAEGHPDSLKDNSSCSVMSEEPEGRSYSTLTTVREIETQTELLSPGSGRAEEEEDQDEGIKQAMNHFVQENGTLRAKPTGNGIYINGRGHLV
Description: As described above and in U.S. Pat. No. 8,637,642, AGS-22M6E is an ADC derived from a murine hybridoma cell line.

[3] = test system: subjects with previously treated locally advanced or metastatic urothelial cancer; conditions: in vivo
Description: The Safety Analysis Set (SAF) will be used for the safety analysis. All subjects who are randomized and received study drug will be included in the SAF. The frequency of AEs and the serious AEs will be summarized by MedDRA system organ class and preferred term. In addition, summary statistics will be provided for the following safety parameters: • Laboratory values • Vital sign measurements • ECOG PS
An AE is any untoward medical occurrence in a subject, temporally associated with the use of a medicinal product, whether or not considered related to the medicinal product. An AE can therefore be any unfavorable and unintended sign (including an abnormal laboratory finding), symptom, or disease (new or exacerbated) temporally associated with the use of a medicinal product.
AEs, including abnormal clinical laboratory values, will be graded using the NCI-CTCAE guidelines (Version 4.03).
The safety analysis set (SAF), which consists of all subjects who received any amount of study drug, will be used for safety analyses.
SAF was used to perform all safety analysis. All treated subjects were analyzed according to the treatment they received.
The number and percentage of AEs by severity were also summarized. All AEs were listed.
A study drug-related TEAE is defined as any TEAE with a causal relationship of YES by the investigator. AEs of interest as classified by customized MedDRA queries and/or standard MedDRA queries were also summarized.

[4] = patients with confirmed complete or partial response

enfortumab vedotin
median duration of response ([1]; patients who had a complete or partial response): 7.39 months
Duration of Response (DOR), Events, % [1, 4]: (53.8%)
Duration of Response, At 6 months [1, 4]: 53.8%
Duration of Response, At 12 months [1, 4]: 27.7%
Median of DOR [1, 4]: 7.39 Months
intra-cycle accumulation of ADC ([2]; dosing on Days 1, 8 and 15 of every 28-day cycle, any dose level): < 30%
half-life ([2]; phase 1 study): 24 to 48 h
comparability between enfortumab vedotin and AGS-22M6E (191P4D12): confirmed
Death, % [3]: (43.9%)
Drug-Related Serious TEAE, % [3]: (22.6%)
Drug-Related TEAE Leading to Death, % [3]: (2.4%)
Drug-Related TEAE Leading to Death, Exclusing Disease Progression, % [3]: (2.4%)
Drug-Related TEAE Leading to Withdrawal of Treatment, % [3]: (13.5%)
Drug-Related TEAE with CTCAE Grade >=3, % [3]: (51.4%)
Drug-Related TEAE, % [3]: (93.9%)
Serious TEAE, % [3]: (46.6%)
TEAE Leading to Death, % [3]: (7.1%)
TEAE Leading to Death, Exclusing Disease Progression, % [3]: (3.7%)
TEAE Leading to Withdrawal of Treatment, % [3]: (17.2%)
TEAE Leading to dose interruption, % [3]: (60.8) %
TEAE Leading to dose reduction, % [3]: (34.1) %
TEAE with CTCAE Grade >=3, % [3]: (70.9%)
TEAE, % [3]: (98.0%)
TEAE: Alopecia, % [3]: (47.0) %
TEAE: Anemia, % [3]: (19.9) %
TEAE: Constipation, % [3]: (27.7) %
TEAE: Decreased appetite, % [3]: (40.9) %
TEAE: Diarrhea, % [3]: (34.8) %
TEAE: Dysgeusia, % [3]: (25.0) %
TEAE: Fatigue, % [3]: (36.1) %
TEAE: Nausea, % [3]: (30.1) %
TEAE: Peripheral sensory neuropathy, % [3]: (34.5) %
TEAE: Pruritis, % [3]: (34.5) %
TEAE: Pyrexia, % [3]: (22.0) %
TRAE Leading to dose interruption: Anemia, % [3]: (2.7) %
TRAE Leading to dose interruption: Asthenia, % [3]: (2.0) %
TRAE Leading to dose interruption: Diarrhea, % [3]: (2.0) %
TRAE Leading to dose interruption: Drug eruption, % [3]: (2.4) %
TRAE Leading to dose interruption: Fatigue, % [3]: (5.4) %
TRAE Leading to dose interruption: Neuropathy peripheral, % [3]: (3.0) %
TRAE Leading to dose interruption: Neutropenia, % [3]: (2.0) %
TRAE Leading to dose interruption: Neutrophil count decreased, % [3]: (5.1) %
TRAE Leading to dose interruption: Peripheral sensory neuropathy, % [3]: (15.5) %
TRAE Leading to dose interruption: Rash maculo-papular, % [3]: (4.4) %
TRAE Leading to dose interruption: Rash, % [3]: (3.4) %
TRAE Leading to dose reduction: Decreased appetite, % [3]: (3.4) %
TRAE Leading to dose reduction: Fatigue, % [3]: (2.7) %
TRAE Leading to dose reduction: Neutropenia, % [3]: (1.7) %
TRAE Leading to dose reduction: Neutrophil count decreased, % [3]: (2.0) %
TRAE Leading to dose reduction: Peripheral sensory neuropathy, % [3]: (7.1) %
TRAE Leading to dose reduction: Rash maculo-papular, % [3]: (4.4) %
TRAE Leading to dose withdrawal: Peripheral sensory neuropathy, % [3]: (2.4) %
